Columns and labels:
[1] = substrate: N[C@@H](CCC(=O)N[C@H]1CSSC[C@H](NC(=O)CC[C@H](N)C(=O)O)C(=O)NCC(=O)NCCCNCCCCNC(=O)CNC1=O)C(=O)O; assay: 412 nm DTNB-coupled trypanothione reductase assay (IC50, Km); assay type: biochemical, Trypanosoma cruzi; details: other: saturating NADPH; pH 7.4; 25.0 °C
Protocol: Assay plates were prepared using a Precision2000 liquid handler (Bio-Tek) with a final DMSO concentration of 1% in all wells. Plates contained a 10-point serial dilution (2-fold or 3-fold dilutions) across columns 2–11 with a top concentration of 100 μM or 200 μM. […] Column 1 contained full signal controls (no inhibitor) and column 12 contained background controls (no enzyme).

[2] = substrate: N[C@@H](CCC(=O)N[C@H]1CSSC[C@H](NC(=O)CC[C@H](N)C(=O)O)C(=O)NCC(=O)NCCCNCCCCNC(=O)CNC1=O)C(=O)O; assay: 340 nm NADPH oxidation trypanothione reductase assay; assay type: biochemical, Trypanosoma cruzi; details: other: 340 nm assay; pH 7.4; 25.0 °C
Protocol: TryR was assayed spectrophotometrically either by monitoring the trypanothione-dependent oxidation of NADPH at 340 nm, or by the reduction of 5,5′-dithio-bis(2-nitrobenzoic acid) (DTNB) at 412 nm (see Fig. 1B). Assays at 340 nm were carried out at 25 °C in 500 μl volume acrylic cuvettes and changes in absorbance monitored with a UV-1601 PC spectrophotometer (Shimadzu). The standard assay mixture contained 40 mM HEPES pH 7.4, 1 mM EDTA, ∼10 mU ml^−1 TryR, 150 μM NADPH and 100 μM T(S)2. Assays at 412 nm were carried out in 96-well plates (Polysorp, Nunc) at room temperature in a volume of 200 μl. Changes in absorbance were monitored in a SpectraMax 340pc plate reader (Molecular Devices). The standard assay mixture contained 40 mM HEPES pH 7.4, 1 mM EDTA, ∼10 mU ml^−1 TryR, 150 μM NADPH, 6 μM T(S)2 and 50 μM DTNB. All assays were initiated by addition of the T(S)2. Data was collected using SoftMax Pro (molecular devices) and UVProbe 2 (Shimadzu) software, processed and analysed using Excel 2002 (Microsoft) and GraFit 5 (Erithacus Software). NADPH stock solutions were measured spectrophotometrically at 340 nm using an absorption coefficient of 6.22 × 10^3 M^−1 cm^−1[16]. The concentration of T(S)2 stock solutions were determined by measuring the oxidation of NADPH in the presence of excess TryR.
Km values with respect to T(S)2 were determined for TbTryR in both assays using purified recombinant T. cruzi TryR for comparison. Determinations for each enzyme were carried out in three independent experiments and a weighted mean calculated.

B1: TcTryR (recombinant T. cruzi trypanothione reductase) (Trypanosoma cruzi) (protein)
chain: MMSKIFDLVVIGAGSGGLEAAWNAATLYKKRVAVIDVQMVHGPPFFSALGGTCVNVGCVPKKLMVTGAQYMEHLRESAGFGWEFDRTTLRAEWKKLIAVKDEAVLNINKSYEEMFRDTEGLEFFLGWGSLESKNVVNVRESADPASAVKERLETENILLASGSWPHMPNIPGIEHCISSNEAFYLPEPPRRVLTVGGGFISVEFAGIFNAYKPKDGQVTLCYRGEMILRGFDHTLREELTKQLTANGIQILTKENPAKVELNADGSKSVTFESGKKMDFDLVMMAIGRSPRTKDLQLQNAGVMIKNGGVQVDEYSRTNVSNIYAIGDVTNRVMLTPVAINEAAALVDTVFGTNPRKTDHTRVASAVFSIPPIGTCGLIEEVASKRYEVVAVYLSSFTPLMHNISGSKYKTFVAKIITNHSDGTVLGVHLLGDNAPEIIQGVGICLKLNAKISDFYNTIGVHPTSAEELCSMRTPSYYYVKGEKMEKPSEASL
notes: made in house
Q: Which Km [1] does the source give for B1 here?
A: The Km was 10.4 ± 0.3 µM.

B2: TcTryR (Trypanosoma cruzi) (protein)
chain: B1 chain
notes: made in house
Q: With B2 as the protein, how does the Km [2] read?
A: The Km was 29.6 ± 2.8 µM.

Q: What about the kcat [2] of the same protein?
A: The kcat was 77 ± 8 s⁻¹.

Q: What about the kcat/Km [2] of the same protein?
A: The kcat/Km was 2.6e+06 M⁻¹ s⁻¹.

Source: PMC2789240, “Comparative structural, kinetic and inhibitor studies of Trypanosoma brucei trypanothione reductase with T. cruzi^” (Molecular and Biochemical Parasitology, 2010)
